Experimental data reported in US20240287172A1 (SCIRHOM, published 2024).
Residue numbers refer to the chain shown, from its start.

T1: miR2-FL-WT-FLAG (mouse, UniProt Q80WQ6 1-827)
T1 construct: on MEF-DKO cells
T1 sequence: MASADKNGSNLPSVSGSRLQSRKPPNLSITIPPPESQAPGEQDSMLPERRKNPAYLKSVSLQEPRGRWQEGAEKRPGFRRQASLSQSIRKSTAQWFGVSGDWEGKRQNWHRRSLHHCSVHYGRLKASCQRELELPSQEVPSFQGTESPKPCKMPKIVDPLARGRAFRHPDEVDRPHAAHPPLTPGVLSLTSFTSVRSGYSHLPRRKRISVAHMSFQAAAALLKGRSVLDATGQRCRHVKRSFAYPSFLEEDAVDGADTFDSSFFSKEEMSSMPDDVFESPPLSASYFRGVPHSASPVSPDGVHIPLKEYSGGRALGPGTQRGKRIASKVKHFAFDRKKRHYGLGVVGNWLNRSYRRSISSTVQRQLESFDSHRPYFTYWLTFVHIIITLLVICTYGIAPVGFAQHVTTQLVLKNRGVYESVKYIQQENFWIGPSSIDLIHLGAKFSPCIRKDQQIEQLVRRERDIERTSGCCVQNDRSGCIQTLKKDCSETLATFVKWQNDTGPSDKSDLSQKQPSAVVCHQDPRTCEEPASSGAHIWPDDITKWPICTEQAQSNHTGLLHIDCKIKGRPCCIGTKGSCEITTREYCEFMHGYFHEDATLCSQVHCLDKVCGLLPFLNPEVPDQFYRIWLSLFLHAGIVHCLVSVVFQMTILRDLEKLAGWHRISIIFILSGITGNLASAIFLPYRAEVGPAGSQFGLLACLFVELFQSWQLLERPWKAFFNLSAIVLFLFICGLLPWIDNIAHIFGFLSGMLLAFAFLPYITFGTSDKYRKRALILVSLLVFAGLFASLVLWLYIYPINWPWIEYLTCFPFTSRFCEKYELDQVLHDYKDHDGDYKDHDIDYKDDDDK

T2: human iRhom2, endogenously expressed (human, UniProt Q6PJF5 1-856)
T2 sequence: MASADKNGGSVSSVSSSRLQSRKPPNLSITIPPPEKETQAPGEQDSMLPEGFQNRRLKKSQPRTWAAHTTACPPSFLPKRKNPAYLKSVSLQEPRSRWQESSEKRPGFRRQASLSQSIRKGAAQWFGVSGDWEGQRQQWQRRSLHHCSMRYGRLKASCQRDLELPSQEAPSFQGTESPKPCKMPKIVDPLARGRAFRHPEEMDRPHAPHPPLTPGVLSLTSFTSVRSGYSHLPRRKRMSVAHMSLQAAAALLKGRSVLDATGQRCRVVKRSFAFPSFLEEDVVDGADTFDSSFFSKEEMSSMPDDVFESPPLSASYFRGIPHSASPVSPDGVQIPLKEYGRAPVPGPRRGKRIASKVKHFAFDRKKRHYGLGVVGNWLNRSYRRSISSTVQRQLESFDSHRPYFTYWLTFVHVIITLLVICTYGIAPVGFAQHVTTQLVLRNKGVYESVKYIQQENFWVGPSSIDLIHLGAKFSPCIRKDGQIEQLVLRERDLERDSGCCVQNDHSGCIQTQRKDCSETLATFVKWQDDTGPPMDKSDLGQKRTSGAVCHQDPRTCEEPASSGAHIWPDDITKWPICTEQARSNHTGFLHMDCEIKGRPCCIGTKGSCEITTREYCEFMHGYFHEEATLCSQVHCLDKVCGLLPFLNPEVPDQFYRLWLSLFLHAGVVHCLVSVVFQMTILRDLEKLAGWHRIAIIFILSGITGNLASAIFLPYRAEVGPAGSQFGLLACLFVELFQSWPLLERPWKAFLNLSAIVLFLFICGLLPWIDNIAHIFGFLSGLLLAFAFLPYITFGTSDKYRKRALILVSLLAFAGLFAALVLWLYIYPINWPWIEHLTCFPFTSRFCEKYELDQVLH

B1: antibody 34 (antibody, V domains shown)
VH: QVTLKESGPGILQPSQTLSLTCSFSGFSLSTFSLGVGWIRQSSGKGLEWLAHIWWDDEKYYNPALKSRLTISKDTSKNQVFLKIANVDAADTATYYCARAYYSKSYYALDYWGQGTSVTVSS
VL: DIQMTQSPSSLSASLGERVSLTCRASQEISGYLSWLQQKPDGTIKRLIYAASTLDSGVPKRFSGSRSGSDYSLAISSLESEDFADYYCLQYANFPFTFGSGTKLEIK
notes: mouse IgG, kappa light chain; also called clone #34; purified antibody 34
B2: antibody 46 (antibody, V domains shown)
VH: QVTLKESGPGILQPSQTLSLTCSFSGFSLSTFGMGVGWIRQPSGKGLEWLAHIWWDDDNYYNQALKSRLTISKDNTKNQVFLNIANVDTADTATYYCARIRSYDYDVRYAMDYWGQGTSVTVSS
VL: DIKMTQSPSSMYASLRERVTITCKASQDINSYLSWFQQKPGKSPKTLIYRANRLVDGVPSRFSGSGSGQDYSLTISSLEYEDLGIYYCQQYYEFPLTFGAGTRLELK
notes: mouse IgG, kappa light chain; also called clone #46
B3: antibody 42 (antibody, V domains shown)
VH: QVTLKESGPGILQPSQTLSLTCSLSGFSLSTFGRGVGWIRQPSGKGLEWLAHIWWDDEKYYNPALKSRLTISKDTSKNQVFLRIANVDTADTATYYCARIQNYGSNYWYFDVWGTGTTVTVSS
VL: LIVLTQSPAIMSASPGEKVTMTCGATSRISYMFWYQQKPGSSPRVLIYDTSNLASGVPVRFSGSGSGTSYSLTISRVEAEDVATYYCQQWNSYPLTFGAGTKLELK
notes: mouse IgG, kappa light chain; also called clone #42; purified antibody 42
B4: antibody 54 (antibody, V domains shown)
VH: B3 VH with L24F, R34L, W49C, E58D, Y61S, R83K, T89S, Y96F, Q101L
VL: QIVLTQSPALMSASPGEKVTMTCSASSSISYMYWYQQKPGSSPRLLIYDTSNLASGVPVRFSGSGSGTSFSLTVSRMEAEDAATYYCQQWNSYPLTFGAGTKLELK
notes: mouse IgG, kappa light chain; also called clone #54
B5: antibody 57 (antibody, V domains shown)
VH: B3 VH with L24F, R34M, E58D, V80I, R83K, T92S, Y95F, Q101E
VL: B4 VL with L10I, I29V, L45V, F70Y
notes: mouse IgG, kappa light chain; also called clone #57
B6: antibody 43 (antibody, V domains shown)
VH: B3 VH with T3A, L24F, R34M, P42S, H52N, E58D, T75A, V80A, R83K, Q101G
VL: B4 VL with L10I, K18R, S26N, S28R, F70Y, V74I, Y86N, N91S
notes: mouse IgG, kappa light chain; also called clone #43; purified antibody 43
B7: antibody 44 (antibody, V domains shown)
VH: B3 VH with L24F, R34M, G44E, E58D, V80I, R83K, A85T, D91E, A98S, Q101G
VL: B4 VL with L10V, S24T, I29V, S30Y, K38T, F70Y, V74I, S92T
notes: mouse IgG, kappa light chain; also called clone #44; purified antibody 44
B8: antibody 49 (antibody, V domains shown)
VH: QVTLKESGPGILQPSQTLSLTCSFSGFSLSTFGMGVGWIRQPSGKGLEWLAHIWWDDDKYYNPALQSRLTVSKDTAKNQVFLKIANVDTADTAIYYCARVGNYGSNYWYFAVWGTGTTVTVSS
VL: B4 VL with L10I, I29V, F70Y, V74I
notes: mouse IgG, kappa light chain; also called clone #49
B9: antibody 56 (antibody, V domains shown)
VH: B3 VH with L24F, R34M, A51T, H52N, E58D, P63S, A64V, R83K, Q101A, N102A
VL: B4 VL with L10I, I29V, L45V, A54S, F70Y, V74I, N91S
notes: mouse IgG, kappa light chain; also called clone #56

What follows are binders tested against T1, miR2-FL-WT-FLAG (assay: FACS, MEF-DKO-miR2-FL-WT-FLAG cells).
Protocol: In brief, immortalized MEF-DKO-EV control cells, MEF-DKO-hiR2-FL-WT-FLAG cells and MEF-DKO-miR2-FL-WT-FLAG cells were harvested with 10 mM EDTA in PBS, washed and resuspended in FACS buffer (PBS, 3% FBS, 0.05% sodium azide), and seeded in Nunc U-bottom 96-well plates (Thermo Fisher Scientific, USA) at approximately 3×10⁵ cells per well. To pellet cells and remove supernatants, the plates were centrifuged at 1,500 rpm and 4° C. for 3 minutes. For primary staining, cells were resuspended in 100 μl per well of either FACS buffer alone (controls), mouse monoclonal anti-FLAG IgG (Sigma-Aldrich, USA) at 3 μg/ml FACS buffer or the antibodies of the invention also at 3 μg/ml FACS buffer and incubated on ice for 1 hour. Afterwards, plates were centrifuged at 1,500 rpm and 4° C. for 3 minutes and washed twice with 200 μl per well of FACS buffer. For secondary staining, cells were spun down and resuspended in 100 μl per well of PE-conjugated goat anti-mouse IgG F(ab′)2 detection fragment (Dianova, Germany) diluted 1:100 in FACS buffer. Protected from light, the cell suspensions were incubated on ice for 1 hour. Plates were then centrifuged at 1,500 rpm and 4° C. for 3 minutes and washed three times with 200 μl per well of FACS buffer. Finally, cells were resuspended in 150 μl per well of FACS buffer and analyzed using a BD Accuri™ C6 Plus flow cytometer (Becton Dickinson, Germany).

B1: no binding (tested: 3 µg/ml).
B2: no binding (tested: 3 µg/ml).
B3: no binding (tested: 3 µg/ml).
B4: no binding (tested: 3 µg/ml).
B5: no binding (tested: 3 µg/ml).
B6: no binding (tested: 3 µg/ml).
B7: no binding (tested: 3 µg/ml).
B8: no binding (tested: 3 µg/ml).
B9: no binding (tested: 3 µg/ml).

What follows are binders tested against T2, human iRhom2, endogenously expressed (assay: cell-based or functional assay).

Compared with B1, B3 is higher in “LPS-induced TNFα release from THP-1 cells, percent inhibition, 10 µg/ml, hybridoma-purified” value: 27.3% for the first, 76.7% for the second.

First: B6
Second: B7
The “LPS-induced TNFα release from THP-1 cells, percent inhibition, 10 µg/ml, hybridoma-purified” value of the first is higher: 74.8% for the first, 32.2% for the second.

Going from B1 to B2, the “LPS-induced TNFα release from THP-1 cells, percent inhibition, recombinant antibody” value falls from 73.8% to 36.1%.

Going from B3 to B4, the “LPS-induced TNFα release from THP-1 cells, percent inhibition, recombinant antibody” value falls from 75.9% to 67.9%.

Compared with B5, B6 is higher in “LPS-induced TNFα release from THP-1 cells, percent inhibition, recombinant antibody” value: 59.7% for the first, 78.5% for the second.

First: B7
Second: B8
The “LPS-induced TNFα release from THP-1 cells, percent inhibition, recombinant antibody” value of the first is higher: 73.2% for the first, 59.9% for the second.

With B9 the “LPS-induced TNFα release from THP-1 cells, percent inhibition, recombinant antibody” value was 65.8%.

Going from B1 to B3, the “PMA-induced HB-EGF release from THP-1 cells, percent inhibition, 3 µg/ml” value rises from 64.2% to 76.6%.

For B7, the “PMA-induced HB-EGF release from THP-1 cells, percent inhibition, 3 µg/ml” value was 67.5%.

Compared with B1, B3 is higher in “PMA-induced HB-EGF release from U-937 cells, percent inhibition” value: 98.2% for the first, 104% for the second.

For B7, the “PMA-induced HB-EGF release from U-937 cells, percent inhibition” value was 100%.

First: B1
Second: B3
The “PMA-induced IL-6R release from THP-1 cells, percent inhibition, 1 µg/ml” value of the first is lower: 71.1% for the first, 85.9% for the second.

Going from B6 to B7, the “PMA-induced IL-6R release from THP-1 cells, percent inhibition, 1 µg/ml” value rises from 72.9% to 73%.

Compared with B1, B3 is higher in “PMA-induced IL-6R release from U-937 cells, percent inhibition, 1 µg/ml” value: 69.3% for the first, 80.8% for the second.

Compared with B6, B7 is lower in “PMA-induced IL-6R release from U-937 cells, percent inhibition, 1 µg/ml” value: 76.1% for the first, 71.8% for the second.

First: B1
Second: B3
The “PMA-induced IL-6R release from U-937 cells, percent inhibition, 3 µg/ml” value of the first is lower: 74.6% for the first, 84.4% for the second.

B7 was tested, and the “PMA-induced IL-6R release from U-937 cells, percent inhibition, 3 µg/ml” value was 82%.

Compared with B1, B3 is higher in “PMA-induced TNFα release from U-937 cells, percent inhibition, 1 µg/ml” value: 68.6% for the first, 94.5% for the second.

Compared with B6, B7 is lower in “PMA-induced TNFα release from U-937 cells, percent inhibition, 1 µg/ml” value: 78.3% for the first, 76.5% for the second.

First: B1
Second: B3
The “PMA-induced TNFα release from U-937 cells, percent inhibition, 3 µg/ml” value of the first is lower: 79.9% for the first, 94.1% for the second.

B7 was tested, and the “PMA-induced TNFα release from U-937 cells, percent inhibition, 3 µg/ml” value was 86.3%.

For B3, the “LPS-induced TNFα release from PBMCs of healthy donors, percent inhibition, 1 µg/ml” value was 77%.

B3 was tested, and the “LPS-induced TNFα release from human macrophages of healthy donors, percent inhibition, 10 µg/ml” value was 93.2%.

For B3, the “PMA-induced HB-EGF release from PBMCs of healthy donors, percent inhibition, 1 µg/ml” value was 77.6%.

With B3 the “PMA-induced IL-6R release from PBMCs of healthy donors, percent inhibition, 1 µg/ml” value was 85%.

Compared with B3, B6 is lower in “PMA-induced TGFα release from PC3 cells, percent inhibition, 1 µg/ml” value: 14.3% for the first, 12.4% for the second.

B7 was tested, and the “PMA-induced TGFα release from PC3 cells, percent inhibition, 1 µg/ml” value was 14.1%.
